# B1: human anti-CDK4 single-chain variable fragment antibody AK2 (scFv, V domains shown)
# VH: QVQLQESGGGLVQPGGSLRLSCAASGFTFSSYAMSWVRQAPGKGLEWVSAISGSGGSTYYADSVEGRFTISRDNSKNTLYLQMNSLRAEDTAVYYCARRLTGFDYWGQGTLVTVSS
# VL: QSALTQPPSASGSPGQSVTISCTGTSSDVGGYNYVSWYQQHPGKAPKLMIYDVSKRPSGVSNRFSGSKSGNTASLTIFGLQAEDEADYYCSSYTSSSTLVFGGGTKLTVL
# notes: AK2-VH; linker peptide between the variable regions; AK2-VL; A pelB leader stands upstream of AK2 in the phagemid; About 30 kD on SDS-PAGE; also called soluble AK2; purified AK2; source: E. coli HB2151 (AK2/HB2151), IPTG-induced, secreted into the culture supernatant; used as culture supernatant or purified (ammonium sulphate precipitation, Ni2+-NTA, PD-10 desalting); …
# How the values were obtained:
# Conditions in all cases: both partners purified
# [1] = biological target: T1, recombinant human cyclin-dependent kinase 4 (Homo sapiens, UniProt P11802); assay: ELISA; non-competitive, affinity constant; plates coated with rhCDK4 at 8.0, 4.0, 2.0, 1.0 μg/mL; serial dilutions of AK2 (8.000-0.125 μg/mL); Kaff = (n − 1) / (n [Ab′] − [Ab]), n = [Ag] / [Ag′]; triplicates
# T1 construct: cyclin-dependent kinase 4 (CDK4), human, recombinant; also called rhCDK4; CDK4
# T1 sequence (P11802 whole entry): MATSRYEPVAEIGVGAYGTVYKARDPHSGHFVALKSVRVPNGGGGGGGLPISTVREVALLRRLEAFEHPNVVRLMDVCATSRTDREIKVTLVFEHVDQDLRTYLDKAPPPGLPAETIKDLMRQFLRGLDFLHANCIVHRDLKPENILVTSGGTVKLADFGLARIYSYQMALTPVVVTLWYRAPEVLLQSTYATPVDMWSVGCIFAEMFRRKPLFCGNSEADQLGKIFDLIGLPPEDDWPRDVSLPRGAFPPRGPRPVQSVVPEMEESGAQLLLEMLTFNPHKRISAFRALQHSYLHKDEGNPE
# [2] = biological target: T2, recombinant human prolyl hydroxylase 2 (Homo sapiens, UniProt Q9GZT9); assay: ELISA; non-competitive; plates coated with rhCDK4 or irrelevant proteins (rhPHD2, rhCOX-2, BSA); purified AK2 10 μg/mL in 3% non-fat milk in PBST, 2 h; detection by anti-V5 tag antibody and HRP-conjugated IgG, A492
# T2 construct: prolyl hydroxylase 2 (PHD2), human, recombinant; also called rhPHD2; PHD2
# T2 sequence (Q9GZT9 whole entry): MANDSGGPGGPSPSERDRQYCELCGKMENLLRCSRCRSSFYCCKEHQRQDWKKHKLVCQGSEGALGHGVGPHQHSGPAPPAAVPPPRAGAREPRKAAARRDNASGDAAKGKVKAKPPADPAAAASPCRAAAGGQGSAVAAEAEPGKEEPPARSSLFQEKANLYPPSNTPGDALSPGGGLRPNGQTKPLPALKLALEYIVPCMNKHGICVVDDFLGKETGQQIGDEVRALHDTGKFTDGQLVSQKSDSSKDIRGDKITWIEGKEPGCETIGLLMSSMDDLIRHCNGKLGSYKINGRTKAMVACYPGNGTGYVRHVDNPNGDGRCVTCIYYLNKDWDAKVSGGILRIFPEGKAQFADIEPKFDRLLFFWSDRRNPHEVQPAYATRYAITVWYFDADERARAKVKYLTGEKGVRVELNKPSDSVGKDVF
# [3] = biological target: T3, bovine serum albumin (Bos taurus, UniProt P02769); assay: as above
# T3 construct: serum albumin, bovine; also called BSA
# T3 sequence (P02769 25-607): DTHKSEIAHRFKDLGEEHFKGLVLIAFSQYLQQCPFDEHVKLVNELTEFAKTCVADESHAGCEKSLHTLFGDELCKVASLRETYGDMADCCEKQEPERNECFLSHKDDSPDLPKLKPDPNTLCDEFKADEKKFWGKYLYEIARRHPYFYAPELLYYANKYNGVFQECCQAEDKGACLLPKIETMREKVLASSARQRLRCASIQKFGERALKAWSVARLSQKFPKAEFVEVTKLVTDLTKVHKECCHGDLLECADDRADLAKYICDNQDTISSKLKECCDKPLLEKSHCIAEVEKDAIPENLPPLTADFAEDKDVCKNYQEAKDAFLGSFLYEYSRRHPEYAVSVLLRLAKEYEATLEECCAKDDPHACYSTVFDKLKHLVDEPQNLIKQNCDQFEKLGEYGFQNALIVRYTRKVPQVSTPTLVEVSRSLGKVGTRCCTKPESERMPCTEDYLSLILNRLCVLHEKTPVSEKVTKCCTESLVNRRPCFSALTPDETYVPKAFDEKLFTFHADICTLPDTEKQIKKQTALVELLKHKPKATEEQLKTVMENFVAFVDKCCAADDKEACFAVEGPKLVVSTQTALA
binder,measurement,setting,value
B1,Ka,[1],2.48e+07 M⁻¹
same,binding result,[2],no binding (tested: 10 μg/mL AK2)
same,binding result,[3],no binding (tested: 10 μg/mL AK2)

# Reference: PMC8690526, “Expression, purification and characterisation of a human anti-CDK4 single-chain variable fragment antibody” (BMC Biotechnology, 2021)
